In test [1] the test system is Gαq downstream of the muscarinic receptor. In words: Muscarinic receptor-dependent activation of PLC-β, [3H]inositol phosphate accumulation in HEK293 cells. Format: cell-based. Particulars: peptide for 30 minutes (FIG. 9). On the procedure: FIG. 9. Muscarinic receptor-dependent activation of PLC-β was determined by quantification of [^3H]inositol phosphate accumulation. Where indicated, HEK293 cells were treated with Palm-27-mer peptide for 30 minutes.
Since a major tenet of this invention is to interdict Gαq signaling in cells with peptidomimetics, it will be necessary to efficiently introduce peptides derived from this scaffold into cells. […] Moreover, once introduced, this peptide prevented the stimulation of PLC activity by Gαq downstream of the P2Y6 receptor and/or muscarinic receptor, a G protein-coupled receptor selective for Gαq (FIG. 7C and FIG. 9).
Since a major tenet of this work is to downregulate G-alpha-q signaling in cells with peptidomimetics, peptides derived from this scaffold have been efficiently delivered into cells.

The target of test [2] is T1, Gαq (Homo sapiens, UniProt P50148).
T1 sequence (P50148 1-359): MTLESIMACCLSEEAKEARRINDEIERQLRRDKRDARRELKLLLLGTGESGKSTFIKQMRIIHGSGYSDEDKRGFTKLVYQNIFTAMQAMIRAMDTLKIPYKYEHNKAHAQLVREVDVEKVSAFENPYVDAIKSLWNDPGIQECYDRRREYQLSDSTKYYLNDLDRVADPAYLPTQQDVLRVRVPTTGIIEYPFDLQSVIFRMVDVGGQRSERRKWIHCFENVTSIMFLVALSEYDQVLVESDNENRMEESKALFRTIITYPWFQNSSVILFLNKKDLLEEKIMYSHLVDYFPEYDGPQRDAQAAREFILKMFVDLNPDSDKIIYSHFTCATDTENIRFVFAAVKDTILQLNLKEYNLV
In words: Fluorescence polarization competition: unlabeled PLC-β3 against TAMRA-labeled peptide for Gαq. Format: binding. The note with it: TAMRA-27-mer 400 nM, Gαq 800 nM. On the procedure:
FIGS. 3A and 3B. TAMRA-27-mer and PLC-β3 directly compete for Gαq. (FIG. 3A) Increasing concentrations of PLC-β3 were added to a solution of TAMRA-27-mer (400 nM) and Gαq (800 nM). The IC50 value is derived from three independent experiments. (FIG. 3B) Phospholipase activity of PLC-β3 activated by Gαq using lipid vesicles and inhibited by increasing concentrations of TAMRA-27-mer.
FIGS. 6A-C. Quantification of Gαq binding to peptides corresponding to the HTH of PLβ3. […] The structures of PLCβ3 (3 OHM) and p63RhoGEF (2RGN) bound to Gαq were superimposed and a single Gαq is shown. Immediately below is shown the sequence alignment of PLCβ3 (SEQ ID NO:37) and p63RhoGEF (SEQ ID NO:41) encompassing the helix-turn-helix. Underlined residues are labeled in the structure. […] (FIG. 6C) Increasing concentrations of unlabeled PLC-β3 were added to a solution of labeled 25-mer (400 nM) and Gαq (4 μM). KD and IC50 values were derived from three independent experiments.
Fluorescence polarization will be used to monitor disruption of complex formation between the 27-mer and active Gαq to identify compounds that directly compete with the complex. It is expected that the majority of these compounds will sit within the canonical effector-binding site of Gαq to prevent the binding of peptide—and by extension, prevent the binding of effectors. However, before using this assay format to identify inhibitors of complex formation it was necessary to insure that peptides corresponding to the HTH of PLC-β3 bound to Gαq. […] These experiments strongly support that peptides corresponding to the HTH of PLC-β3 directly bind to the effector pocket of Gαq and can be used as surrogates of effectors in assays of complex formation with active Gαq.
The most promising peptide consisted of 25 residues (TAMRA-25-mer) spanning the entire HTH and bound to G-alpha-q with appreciable affinity (Kd˜6 microMolar).

Test [3] deals with T2, activated Gαq (Homo sapiens, UniProt P50148).
T2 sequence (P50148 1-359): T1 sequence (P50148 1-359)
Particulars: full-length protein; read-out: dissociation constant (KD) for activated Gαq; cited from earlier work.

As usually defined, the Kd is the constant that tells how readily two partners part at equilibrium.

As for “Palm-PEG-PEG-HQDYAEALANPIKHVSL-Nle-DQRARQLAA (HQDYAEALANPIKHVSLXDQRARQLAA; non-natural residues) [Palm-27-mer, 27-mer HTH peptide with a palmityl lipid linked through PEG linkers]”, the “stimulation of PLC activity by Gαq downstream of the muscarinic receptor” value in test [1] is given as “prevent the stimulation of PLC activity”.

B1: PLC-β3: full-length phospholipase C beta 3, effector of Gαq, used as unlabeled competitor (protein)
chain: AGAQPGVHALQLEPPTVVETLRRGSKFIKWDEETSSRNLVTLRVDPNGFFLYWTGPNMEVDTLDISSIRDTRTGRYARLPKDPKIREVLGFGGPDARLEEKLMTVVSGPDPVNTVFLNFMAVQDDTAKVWSEELFKLAMNILAQNASRNTFLRKAYTKLKLQVNQDGRIPVKNILKMFSADKKRVETALESCGLKFNRSESIRPDEFSLEIFERFLNKLCLRPDIDKILLEIGAKGKPYLTLEQLMDFINQKQRDPRLNEVLYPPLRPSQARLLIEKYEPNQQFLERDQMSMEGFSRYLGGEENGILPLEALDLSTDMTQPLSAYFINSSHNTYLTAGQLAGTSSVEMYRQALLWGCRCVELDVWKGRPPEEEPFITHGFTMTTEVPLRDVLEAIAETAFKTSPYPVILSFENHVDSAKQQAKMAEYCRSIFGDALLIEPLDKYPLAPGVPLPSPQDLMGRILVKNKKRHRPSAGGPDSAGRKRPLEQSNSALSESSAATEPSSPQLGSPSSDSCPGLSNGEEVGLEKPSLEPQKSLGDEGLNRGPYVLGPADREDEEEDEEEEEQTDPKKPTTDEGTASSEVNATEEMSTLVNYIEPVKFKSFEAARKRNKCFEMSSFVETKAMEQLTKSPMEFVEYNKQQLSRIYPKGTRVDSSNYMPQLFWNVGCQLVALNFQTLDVAMQLNAGVFEYNGRSGYLLKPEFMRRPDKSFDPFTEVIVDGIVANALRVKVISGQFLSDRKVGIYVEVDMFGLPVDTRRKYRTRTSQGNSFNPVWDEEPFDFPKVVLPTLASLRIAAFEEGGKFVGHRILPVSAIRSGYHYVCLRNEANQPLCLPALLIYTEASDYIPDDHQDYAEALINPIKHVSLMDQRARQLAALIGESEAQAGQETCQDTQSQQLGSQPSSNPTPSPLDASPRRPPGPTTSPASTSLSSPGQRDDLIASILSEVAPTPLDELRGHKALVKLRSRQERDLRELRKKHQRKAVTLTRRLLDGLAQAQAEGRCRLRPGALGGAADVEDTKEGEDEAKRYQEFQNRQVQSLLELREAQVDAEAQRRLEHLRQALQRLREVVLDANTTQFKRLKEMNEREKKELQKILDRKRHNSISEAKMRDKHKKEAELTEINRRHITESVNSIRRLEEAQKQRHDRLVAGQQQVLQQLAEEEPKLLAQLAQECQEQRARLPQEIRRSLLGEMPEGLGDGPLVACASNGHAPGSSGHLSGADSESQEENTQL
In the case of B1, the “competition with the 27-mer for binding to Gαq” value in test [2] is listed as “could effectively compete”. For the same molecule, the Kd in test [3] was 10 to 100 nM.

The values are drawn from patent US9540620B2, “Methods and compositions for modulating G-alpha-Q signaling” (The University of North Carolina at Chapel Hill, priority 2012, dated 2017).
